Laboratory results taken from publication PMC4889941, “Flexibility of KorA, a plasmid-encoded, global transcription regulator, in the presence and the absence of its operator” (Nucleic Acids Research, 2016).

Target: the molecule itself
Test: SAXS; free KorA at 2.5, 5 and 10 mg/ml in 20 mM Tris-HCl pH 7.0, 100 mM NaCl, 1 mM EDTA, 293K; confirmed by SEC-SAXS (Superdex 200 Increase, 4 mg/ml); mass from I0 against bovine serum albumin

B1: KorA repressor from the IncP1 plasmid RK2 (natural protein)
chain: MKKRLTESQFQEAIQGLEVGQQTIEIARGVLVDGKPQATFATSLGLTRGAVSQAVHRVWAAFEDKNLPEGYARVTAVLPEHQAYIVRKWEADAKKKQETKR
notes: KorA, global transcription repressor encoded by the IncP1 plasmid RK2; 13C/15N-labelled protein was used for NMR; also called free KorA; KorA dimer
B1 was tested, and the “stoichiometry N” value was 2.
